According to paper PMC7195446, “The RhHB1/RhLOX4 module affects the dehydration tolerance of rose flowers (Rosa hybrida) by fine-tuning jasmonic acid levels”:

Target: GST-RhHB1 (Rosa hybrida, UniProt A0A096YDU1 1-243)
Experiment: EMSA; 25 pM probe (so in the source), 3 ug protein; signal weakened by 10x and 100x unlabeled probe; Pierce EMSA kit, per manufacturer's instructions; buffer, salt, pH and temperature not given
Settings: protein: recombinant; tags: GST (N-terminal, pGEX-2T); chain copies: 2; label: biotin (5' of S3); blunt

Sequence of GST-RhHB1 (A0A096YDU1 entry or part of it): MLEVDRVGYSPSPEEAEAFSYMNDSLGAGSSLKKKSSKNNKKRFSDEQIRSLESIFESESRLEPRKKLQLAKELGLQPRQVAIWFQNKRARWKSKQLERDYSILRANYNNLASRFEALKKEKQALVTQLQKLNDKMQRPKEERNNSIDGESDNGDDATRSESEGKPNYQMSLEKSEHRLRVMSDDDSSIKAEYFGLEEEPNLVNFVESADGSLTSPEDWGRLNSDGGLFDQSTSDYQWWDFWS

B1: RhLOX4 promoter probe (-1270 to -1303) (dsDNA)
DNA 1: AAGAGAATATTTTGAAATAATATTAGGAGTCTCT
DNA 2: AGAGACTCCTAATATTATTTCAAAATATTCTCTT
binding result: binds
